Source: the supplement of paper PMC7877785
± gives the uncertainty stated by the source.

Test: self-splicing fitness, log relative to wild type (ln ratio); higher = more splicing; Tetrahymena group I intron in knt gene, E. coli kanamycin selection, DiMSum; sequences stand for … in CUCUCU…GGAGGGAAAAGUUAUCAGGCAUGCACCUGGUAGCUAGUCUUUAAACCAAUAGAUUGCAUCGGUUUAAAAGGCAAGACCGUCAAAUUGCGGGAAAGGGGUCAACAGCCGUUCAGUACCAAGUCUCAGGGGAAACUUUGAGAUGGCCUUGCAAAGGGUAUGGUAAUAAGCUGACGGACAUGGUCCUAACCACGCAGCCAAGUCCUAAGUCAACAGAUCUUCUGUUGAUAUGGAUGCAGUUCACAGACUAAAUGUCGGUCGGGGAAGAUGUAUUCUUCUCAUAAGAUAUAGUCGGACCUCUCCUUAAUGGGAGCUAGCGGAUGAAGUGAUGCAACACUGGAGCCGCUGGGAACUAAUUUGUAUGCGAAAGUAUAUUGAUUAGUUUUGGAGUACUCGUGGUCG
Summary of the method: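 Pooled colonies went to amplicon sequencing on an Illumina HiSeq 2500 after six replicate transformations. The plates were LB agar with 100 μg/mL carbenicillin, 50 μM IPTG and 0.2% rhamnose, with or without 25 μg/mL kanamycin, incubated overnight at 37°C or 30°C. The E. coli BL21(DE3) library had all eight P1ex-region intron nucleotides randomised, the intron placed in the knt kanamycin-resistance gene on pET-22b(+). DiMSum fitness is the error-weighted combination of replicate fold changes, kanamycin against none, normalised to wild type.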

Sequence: CUGCAGCAAUAUUACGCUCG
- self-splicing fitness (ln) (30 °C): -2.3 ± 0.16
- self-splicing fitness (ln) (37 °C): -0.671 ± 0.16

Sequence: CUGCAGCAAUAUUACGGAAA
- self-splicing fitness (ln) (30 °C): -2.27 ± 0.21
- self-splicing fitness (ln) (37 °C): -1.56 ± 0.38

Sequence: CUGCAGCAAUAUUACGGAGU
- self-splicing fitness (ln) (30 °C): -3.05 ± 0.14
- self-splicing fitness (ln) (37 °C): -1.65 ± 0.13

Sequence: CUGCAGCAAUAUUACGGAUC
- self-splicing fitness (ln) (37 °C): -2.38 ± 0.21

Sequence: CUGCAGCAAUAUUACGGCAG
- self-splicing fitness (ln) (30 °C): -2.63 ± 0.22
- self-splicing fitness (ln) (37 °C): -2.27 ± 0.2

Sequence: CUGCAGCAAUAUUACGGCUC
- self-splicing fitness (ln) (30 °C): -2.57 ± 0.22
- self-splicing fitness (ln) (37 °C): -2.96 ± 0.43

Sequence: CUGCAGCAAUAUUACGGGCA
- self-splicing fitness (ln) (30 °C): -3.01 ± 0.17
- self-splicing fitness (ln) (37 °C): -1.06 ± 0.14

Sequence: CUGCAGCAAUAUUACGGGUU
- self-splicing fitness (ln) (30 °C): -3.86 ± 0.17
- self-splicing fitness (ln) (37 °C): -2.74 ± 0.14

Sequence: CUGCAGCAAUAUUACGUCAG
- self-splicing fitness (ln) (30 °C): -3.61 ± 0.28
- self-splicing fitness (ln) (37 °C): -2.08 ± 0.21

Sequence: CUGCAGCAAUAUUACGUCAU
- self-splicing fitness (ln) (30 °C): -2.86 ± 0.14
- self-splicing fitness (ln) (37 °C): -2.06 ± 0.13

Sequence: CUGCAGCAAUAUUACGUCCG
- self-splicing fitness (ln) (30 °C): -0.43 ± 0.094
- self-splicing fitness (ln) (37 °C): 0.136 ± 0.13

Sequence: CUGCAGCAAUAUUACGUCGU
- self-splicing fitness (ln) (30 °C): -4.05 ± 0.25
- self-splicing fitness (ln) (37 °C): -3.44 ± 0.25

Sequence: CUGCAGCAAUAUUACGUGCU
- self-splicing fitness (ln) (30 °C): -4.44 ± 0.23
- self-splicing fitness (ln) (37 °C): -2.54 ± 0.19

Sequence: CUGCAGCAAUAUUACGUUCU
- self-splicing fitness (ln) (30 °C): -2.88 ± 0.21
- self-splicing fitness (ln) (37 °C): -1.88 ± 0.2

Sequence: CUGCAGCAAUAUUACGUUUA
- self-splicing fitness (ln) (30 °C): -2.64 ± 0.19
- self-splicing fitness (ln) (37 °C): -1.21 ± 0.19

Sequence: CUGGAGCAAUAUUACGAAUA
- self-splicing fitness (ln) (30 °C): -3.07 ± 0.4
- self-splicing fitness (ln) (37 °C): -2.15 ± 0.47

Sequence: CUGGAGCAAUAUUACGACCA
- self-splicing fitness (ln) (30 °C): -1.68 ± 0.31
- self-splicing fitness (ln) (37 °C): -1.61 ± 0.38

Sequence: CUGGAGCAAUAUUACGAGCU
- self-splicing fitness (ln) (37 °C): -1.66 ± 0.46

Sequence: CUGGAGCAAUAUUACGAGGA
- self-splicing fitness (ln) (30 °C): -3.18 ± 0.33

Sequence: CUGGAGCAAUAUUACGAUAG
- self-splicing fitness (ln) (30 °C): -2.16 ± 0.25
- self-splicing fitness (ln) (37 °C): -1.38 ± 0.22

Sequence: CUGGAGCAAUAUUACGCAUA
- self-splicing fitness (ln) (37 °C): -2.22 ± 0.37

Sequence: CUGGAGCAAUAUUACGCCUA
- self-splicing fitness (ln) (30 °C): -1.84 ± 0.36
- self-splicing fitness (ln) (37 °C): -1.44 ± 0.32

Sequence: CUGGAGCAAUAUUACGCCUG
- self-splicing fitness (ln) (30 °C): -1.22 ± 0.22
- self-splicing fitness (ln) (37 °C): -1.39 ± 0.28

Sequence: CUGGAGCAAUAUUACGCGAC
- self-splicing fitness (ln) (30 °C): -0.944 ± 0.27
- self-splicing fitness (ln) (37 °C): -1.84 ± 0.36

Sequence: CUGGAGCAAUAUUACGCUUG
- self-splicing fitness (ln) (30 °C): -3.94 ± 0.34
- self-splicing fitness (ln) (37 °C): -2.35 ± 0.45

Sequence: CUGGAGCAAUAUUACGGAAA
- self-splicing fitness (ln) (30 °C): -2.47 ± 0.33
- self-splicing fitness (ln) (37 °C): -2.78 ± 0.35

Sequence: CUGGAGCAAUAUUACGGACA
- self-splicing fitness (ln) (30 °C): -3.7 ± 0.43
- self-splicing fitness (ln) (37 °C): -2.45 ± 0.46

Sequence: CUGGAGCAAUAUUACGGCCA
- self-splicing fitness (ln) (37 °C): -1.99 ± 0.24

Sequence: CUGGAGCAAUAUUACGGGAA
- self-splicing fitness (ln) (30 °C): -2.68 ± 0.31
- self-splicing fitness (ln) (37 °C): -2.36 ± 0.27

Sequence: CUGGAGCAAUAUUACGGGAU
- self-splicing fitness (ln) (30 °C): -4.01 ± 0.37
- self-splicing fitness (ln) (37 °C): -1.91 ± 0.28

Sequence: CUGGAGCAAUAUUACGUGAG
- self-splicing fitness (ln) (30 °C): -0.772 ± 0.049
- self-splicing fitness (ln) (37 °C): -0.213 ± 0.063

Sequence: CUGGAGCAAUAUUACGUGGG
- self-splicing fitness (ln) (30 °C): -3.7 ± 0.2
- self-splicing fitness (ln) (37 °C): -2.52 ± 0.26

Sequence: CUGGAGCAAUAUUACGUGUA
- self-splicing fitness (ln) (30 °C): -3.32 ± 0.32
- self-splicing fitness (ln) (37 °C): -1.57 ± 0.37

Sequence: CUGGAGCAAUAUUACGUGUG
- self-splicing fitness (ln) (30 °C): -1.53 ± 0.11
- self-splicing fitness (ln) (37 °C): -0.75 ± 0.13

Sequence: CUGGAGCAAUAUUACGUGUU
- self-splicing fitness (ln) (30 °C): -3.3 ± 0.16
- self-splicing fitness (ln) (37 °C): -3.31 ± 0.21

Sequence: CUGUAGCAAUAUUACGACAA
- self-splicing fitness (ln) (30 °C): -0.568 ± 0.11
- self-splicing fitness (ln) (37 °C): 0.0313 ± 0.11

Sequence: CUGUAGCAAUAUUACGACCA
- self-splicing fitness (ln) (30 °C): -1.45 ± 0.38

Sequence: CUGUAGCAAUAUUACGACUA
- self-splicing fitness (ln) (30 °C): -1.74 ± 0.42
- self-splicing fitness (ln) (37 °C): -0.817 ± 0.3

Sequence: CUGUAGCAAUAUUACGAGGC
- self-splicing fitness (ln) (30 °C): -3.31 ± 0.37
- self-splicing fitness (ln) (37 °C): -3.04 ± 0.32

Sequence: CUGUAGCAAUAUUACGAGUC
- self-splicing fitness (ln) (37 °C): -2.05 ± 0.31
